Laboratory results published in publication PMC4405178 (Biochemistry, 2015).

Target: T1, full-length wild-type Ste2p (Saccharomyces cerevisiae, UniProt D6VTK4 1-431)
T1 sequence (looked up): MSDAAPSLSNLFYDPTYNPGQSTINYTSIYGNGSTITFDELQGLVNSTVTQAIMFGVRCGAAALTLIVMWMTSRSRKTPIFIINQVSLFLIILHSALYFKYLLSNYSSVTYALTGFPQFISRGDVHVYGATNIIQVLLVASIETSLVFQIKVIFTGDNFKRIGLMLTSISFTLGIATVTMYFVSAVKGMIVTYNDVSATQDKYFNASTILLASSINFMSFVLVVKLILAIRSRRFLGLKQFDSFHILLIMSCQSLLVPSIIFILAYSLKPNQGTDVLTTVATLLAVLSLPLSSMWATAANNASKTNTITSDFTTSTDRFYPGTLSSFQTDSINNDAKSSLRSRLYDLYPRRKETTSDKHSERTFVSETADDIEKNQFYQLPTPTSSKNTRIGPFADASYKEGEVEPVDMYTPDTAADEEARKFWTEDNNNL
Experiment: flow cytometry on cells

B1: [K^7(NBD),Nle^12] α-factor (peptide)
chain: WHWLQLKPGQPMY
modifications: NBD (7-nitrobenz-2-oxa-1,3-diazol-4-yl) conjugated to the lysine at position 7; norleucine at position 12 in place of methionine
Kd: 28 ± 4.7 nM
